Results taken from the supplement of paper PMC10567573.
± gives the standard deviation.

Test: protein stability index of a GFP-peptide fusion (GPS, HEK-293T) (PSI 1-6); higher = more stable
Settings: c terminus: a fixed tail appended
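Also: 24-mer peptide tiles fused after GFP, lentivirally expressed, FACS-sorted into six equal bins by GFP/DsRed ratio, decoded by Illumina sequencing, PSI is the read-weighted mean bin number.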

| Sequence | protein stability index (treatment: DMSO) | protein stability index (treatment: MLN4924 1 uM, 8 h) |
| --- | --- | --- |
| RKLLNRHNIVFGDYTWTEFDEPFL [TRIP13] | 2.24 ± 0.24 | 2.64 ± 0.22 |
| RKMLEQGYSPNGRDANGWTLLHFS [ASB7] | 2.34 ± 0.14 | 2.49 ± 0.21 |
| RKRTAHERAKELYSSGEFSSGRKW [INTS4] | 4.06 ± 0.32 | 4.08 ± 0.31 |
| RLGPLSAEGTTGLAPAGQTSEESR [TNXB] | 5.3 ± 0.36 | 5.41 ± 0.2 |
| RLLGSARPELGAALGIYGAPYAAA [IRX6] | 2.27 ± 0.42 | 2.44 ± 0.47 |
| RLRVELECEEGELSFYDAERHCHL [TRIM35] | 3.66 ± 0.17 | 3.75 ± 0.075 |
| RLSRRMASQHSYPLNRFSSVPLDP [CBY2] | 3.22 ± 0.27 | 3.45 ± 0.22 |
| RLSVPRDSACDESSCIPKAFGNPK [IRX6] | 4.84 ± 0.18 | 4.89 ± 0.19 |
| RLVESTSLRKAIETVYAAYLPKNT [MLH1] | 2.2 ± 0.27 | – |
| RMEYVHSKNLIYRDVKPENFLIGR [CSNK1G1] | 2.45 ± 0.16 | 2.79 ± 0.31 |
| RMGLMKANHVFFLLYLLHILLLDG [FADS1] | 2.94 ± 0.83 | 2.68 ± 0.52 |
| RMSYQDPAQLSCLPYLEHVGHNHT [NFE2L1] | 2.98 ± 0.2 | 3.12 ± 0.28 |
| RNVRERIAKNLVEKGILTTEKQNF [GOLPH3L] | 3.73 ± 0.22 | 3.82 ± 0.2 |
| RPGHLPGLLLGSHGLLGSPVRAAA [CDC25B] | 3.31 ± 0.53 | 3.09 ± 0.42 |
| RPVSCSGRDALLDQIRQGIQLKSV [WASL] | 5.08 ± 0.56 | 4.95 ± 0.21 |
| RPYMCKECGKAFSQNSSLVQHERI [ZNF8] | 2.82 ± 0.16 | 3.24 ± 0.45 |
| RQIRTNWATRKPPAPKSTYECRCI [TIA1] | 2.56 ± 0.17 | 2.85 ± 0.45 |
| RQMAFDFARVKKGADGVMRTMAPE [SNAP91] | 3.47 ± 0.38 | 3.43 ± 0.16 |
| RQPPPPAPQHPQPGSQALPAPALA [FBXO28] | 4.45 ± 0.23 | 4.74 ± 0.16 |
| RQVALGAMEAVRVNPLHVDSTWLL [SLC25A39] | 2.53 ± 0.27 | 2.52 ± 0.069 |
| RRATSGGKWPQVLFFPEGTCSNKK [LPCAT4] | 3.72 ± 0.31 | 3.78 ± 0.13 |
| RRCGKCFCDRCCSQKVPLRRMCFV [ZFYVE21] | 2.31 ± 0.45 | 2.31 ± 0.39 |
| RRGGGPVFPAPVVGSGGATSGKLL [ZBTB22] | 4.104 ± 0.027 | 4.33 ± 0.29 |

| Sequence | protein stability index (treatment: DMSO) | protein stability index (treatment: MLN4924 1 uM, 8 h) |
| --- | --- | --- |
| RRLYHLEGFQRCDVARQLGKNNEF [PSD2] | 2.61 ± 0.43 | 2.8 ± 0.16 |
| RRMAAEATEWQKAGAPPPSGSAVS [SRPK2] | 4.59 ± 0.42 | 4.68 ± 0.29 |
| RRQARREAEADKPRRLGRLKYQAP [NOP53] | 4.5 ± 0.35 | 4.6 ± 0.24 |
| RRRRIIINVGGIKYSLPWTTLDEF [KCNG1] | 2.48 ± 0.44 | 2.46 ± 0.59 |
| RSGSPTVPIKPPCIPNGKENFSGG [CAMK2D] | 4.2 ± 0.2 | 4.32 ± 0.21 |
| RSLQDGTREGFGHSTSLKVPLARS [LCOR] | 4.38 ± 0.27 | 4.37 ± 0.12 |
| RSPDASPSRAPPSTQEPQSPREGE [GNAS] | 5.36 ± 0.12 | 5.42 ± 0.078 |
| RSSGLVQRRTEASRNAADKERAAG [GOLPH3] | 5.11 ± 0.3 | 5.14 ± 0.33 |
| RTMDIPRSVQNFRFFASSSLHHTS [ALDH8A1] | 2.43 ± 0.15 | 2.62 ± 0.2 |
| RTPLMKAARAGHVCTVQFLISKGA [ANKRD17] | 2.27 ± 0.37 | 2.46 ± 0.33 |
| RVGIFLDYEAGTLSFYNVTDRSHI [TRIM39] | 2.6 ± 0.77 | 2.26 ± 0.35 |
| RVGKWHQDFPVKKRKKLSTWKQEL [ZNF75A] | 2.7 ± 0.29 | 2.92 ± 0.4 |
| RVLSPLHRGPSGHTEASAQRSHMG | 4.1 ± 0.063 | 4.19 ± 0.16 |
| RYSTNLSNHVDDFTTFRGTELSFL [EDNRA] | 2.58 ± 0.17 | 2.54 ± 0.21 |
| SAAQTDPTTGYRRLLRFSSQIHNN [LOXL2] | 3.1 ± 0.2 | 3.23 ± 0.17 |
| SAEEVRFPVSVTQQSPAAVSMETY [C2CD2L] | 4.52 ± 0.33 | 4.71 ± 0.14 |
| SAENSVAKKEDKVPVKKQKTRTVF [NANOGP8] | 4.21 ± 0.33 | 4.29 ± 0.34 |
| SAERYNPRTNQWSPVVAMTSRRSG [KLHL20] | 4.22 ± 0.061 | 4.43 ± 0.16 |
| SAPATAKENAAAPSPVRAPAPSPA [PALM] | 5.18 ± 0.21 | 5.34 ± 0.17 |
| SASEILYSAPPGDPLSTNYSLAPN [NFE2L1] | 4.16 ± 0.29 | 4.12 ± 0.28 |
| SASEPQPASQAASSSSASADLLAG [SNAP91] | 5.51 ± 0.17 | 5.41 ± 0.19 |
| SAVEGAPPARPRPRSPECRMIPGQ [IRX6] | 4.86 ± 0.24 | 4.96 ± 0.32 |
| SCCFDPDSQRVASVSLDRCIKIWD [WDR88] | 2.44 ± 0.14 | 2.57 ± 0.36 |

| Sequence | protein stability index (treatment: DMSO) | protein stability index (treatment: MLN4924 1 uM, 8 h) |
| --- | --- | --- |
| SCDDLMGGGGLHSVGTYIIDLLTF [GFOD1] | 2.75 ± 0.72 | 2.41 ± 0.29 |
| SCLRRRRHPPKVGDDSDLSEGFES [SMG5] | 5.02 ± 0.32 | 4.93 ± 0.058 |
| SDKDKAVGIFNTVINPMLNPIIYS [OR3A1] | 2.54 ± 0.3 | 2.71 ± 0.25 |
| SDKYPIQDTELPKAEECDTITLNC [EDARADD] | 5.25 ± 0.41 | 5.26 ± 0.21 |
| SDLSRRSSSTMSKSEYMEIEEDMN [KCNA1] | 5.21 ± 0.33 | 5.38 ± 0.1 |
| SDNILSPVMNGGVQTWTQPRLCYL [PDZK1] | 2.19 ± 0.31 | 2.46 ± 0.56 |
| SDNLLVILKRKWWKYILLGLADVE [SLC35F2] | 2.38 ± 0.21 | 2.31 ± 0.73 |
| SEDAVGGATLGQTTSEEAVGGATL [HDAC6] | 5.54 ± 0.15 | 5.18 ± 0.4 |
| SELCIWLGSQIKSLCNLEESITSA [FAM98B] | 1.97 ± 0.23 | 2.55 ± 0.18 |
| SEMLDITMKESLTTREIRRQEAIY [NET1] | 3.75 ± 0.18 | 3.91 ± 0.33 |
| SESGADTISVNQTRVNLSSDTEST [DLC1] | 5.33 ± 0.4 | 5.3 ± 0.58 |
| SESQLASTESDKPTTGRVYESDSS [C18orf25] | 5.5 ± 0.15 | 5.44 ± 0.26 |
| SETPQETYRKVMNWKETLVFPPEV [STK38L] | 3.61 ± 0.53 | 3.7 ± 0.3 |
| SEVEELNMSLTALREKLLEAEQSL [TEKT4] | 3.52 ± 0.35 | 3.87 ± 0.2 |
| SEVFGPERMPPSGAARSFQEVTEP [PXN] | 4.77 ± 0.32 | 5.19 ± 0.21 |
| SFRRNVGRVLLANSTQADEGKTKK [FBXO34] | 4.71 ± 0.46 | 4.85 ± 0.35 |
| SFSSLEPDNEQLMEEVISPRQVSY [IQUB] | 4.29 ± 0.2 | 4.56 ± 0.22 |
| SFVLKNFPALLSTGEFLKLPFERL [KLHL13] | 1.94 ± 0.42 | 2.07 ± 0.42 |
| SGGYWVGMSTIRPNPGFSMLDFLS [APMAP] | 2.1 ± 0.14 | 2.32 ± 0.97 |
| SGITIPKPPKPPDKPLMPYMRYSR [SMARCE1] | 2.68 ± 0.25 | 3.32 ± 0.23 |
| SGLIQTVFISSYMVLAPVFGYLGD [SPNS1] | 3.5 ± 0.3 | 3.16 ± 0.22 |
| SGSESDHTTRSSLRGPRERAPSER [DVL3] | 5.33 ± 0.32 | 5.39 ± 0.24 |
| SHGVRNKCLQLLGNLGSLEKSVTK [INTS4] | 3.23 ± 0.27 | 3.28 ± 0.22 |

| Sequence | protein stability index (treatment: DMSO) | protein stability index (treatment: MLN4924 1 uM, 8 h) |
| --- | --- | --- |
| SIVAVGFHIFRTLEVNRLMGKLLQ [PKD2L1] | 3.03 ± 0.56 | 2.55 ± 0.5 |
| SKLEERFGPDSKSSALACTLPTLP [NCF4] | 4.04 ± 0.19 | 4.21 ± 0.17 |
| SLLDELMEVQHFRTIYHMFIAGLC [SOAT2] | 2.59 ± 0.55 | 2.49 ± 0.42 |
| SLLKKPDGVKESTESSNTTIEDED [CAMK2D] | 5.52 ± 0.11 | 5.43 ± 0.19 |
| SLNSTFGSTNLTGLFFPPQLNGTA [NFE2L1] | 2.52 ± 0.35 | 2.92 ± 0.38 |
| SLQSCMHFQPNSPASDLEAALEAA [NANOGP8] | 4.6 ± 0.22 | 4.63 ± 0.27 |
| SLRGRAWQYLSGGKVKLQQNPGKF [TBC1D10A] | 3.13 ± 0.52 | 2.94 ± 0.29 |
| SLRRRGASAAARLGCNRQSWCLKR [TRIM14] | 3.28 ± 0.28 | 3.16 ± 0.58 |
| SLSYTVLIVGRIAIGVSISLSSIA [SLC2A12] | 3.02 ± 0.43 | 3.37 ± 0.23 |
| SLVLPWSFPLEWAPQNLTRWTFEK [TOR1AIP2] | 2.14 ± 0.44 | 2.29 ± 0.32 |
| SNEWKTVVGGAMFFIGFTALVIMW [COX4I1] | 3.09 ± 0.14 | 3.06 ± 0.27 |
| SNRGAYVKLGPALTPHIVQYQANK [PPEF2] | 2.9 ± 0.38 | 2.99 ± 0.41 |
| SPEPGTPAAPTPESFTVHFLPLNS [DNAAF3] | 3.55 ± 0.35 | 3.5 ± 0.22 |
| SPPEASPGPPAAPRARRRLGSGPD [PWWP2B] | 5.22 ± 0.39 | 5.47 ± 0.31 |
| SPVTATLSDEDDGFVDLLDGENLK [CDC25A] | 5.4 ± 0.21 | 5.52 ± 0.13 |
| SQKVPLRRMCFVDPVRQCAECALV [ZFYVE21] | 2.21 ± 0.2 | 2.29 ± 0.23 |
| SQSLCLNKPTMSFKDYIQERSDPV [ETS2] | 3.54 ± 0.32 | 3.67 ± 0.53 |
| SRRVIAANNRILAERIAKEIQVIP [IMPA1] | 2.46 ± 0.34 | 2.69 ± 0.12 |
| SRTQEPSLGKQKVFIIRKSLLDEL [SOAT2] | 2.04 ± 0.31 | 2.23 ± 0.34 |
| SRTSCRLSGGLGAGSCRLGSAGGL [KRT17] | 2.33 ± 0.44 | 2.23 ± 0.36 |
| SRVKGSAPEIDPSSDGSNFGWETK [KMT2E] | 4.83 ± 0.4 | 4.83 ± 0.15 |
